Assay type in all cases: cell-based
Assay [1] concerns EBC1-SR#6 cell line (compared with EBC1 parental cell line). In words: EZ-Cytox cell viability assay, 72 hours after treatment. Conditions: EBC1-SR#6 vs EBC1 parental cell line, sole treatment, FIG. 2/FIG. 3.
Description: To examine whether the quantitative increase of PDGF protein contributes to obtaining resistance in anti-c-Met antibody resistance acquired cell line, EBC1 and EBC1-SR#6 cell lines were treated with PDGFR (PDGF Receptor) TKI (tyrosine kinase inhibitor), then the changes of cell growth inhibition were measured using EZ-Cytox Cell viability assay kit (DaeiLab Service, Seoul, Korea).
For this, each of EBC1 cells and EBC1-SR#6 cells were seeded on 96-well plate at the amount of 5000 (5×10^3) cells. […] Seventy two hours after the treatment, the number of the cells was measured by EZ-Cytox Cell viability assay kit.
In assay [2] the test system is EBC1 parent cells. In words: Responsiveness of parent cells to SAIT301 before inducing resistance. How it is done:
To examine the quantitative change of PDGF when a resistance to an anti-c-Met antibody is induced, SAIT301 resistance acquired EBC1-SR#6 cell lines were prepared by repeatedly treating EBC1 (JCRB 0820) cells with SAIT301. EBC1 parent cells were all responsive to SAIT301, before inducing SAIT301 resistance. The SAIT301 resistance acquired EBC1-SR#6 cell lines were prepared as follows: […]

Assay [3] concerns EBC1-SR#6 cell lines. Nature of the assay: CellTiter Glo assay confirming acquired resistance to SAIT301. Conditions: resistance-acquired clones; 0-2 ug/ml; 72 hours after the antibody treatment. The procedure: EBC1 (JCRB 0820) cell lines was treated with SAIT301 for at least 2 months, with increasing the concentration of treated antibody. The concentration of SAIT301 was increased from 1 ug/ml to 10 ug/ml until a resistance is induced. To confirm the acquisition of a resistance to SAIT301, the prepared clones were treated with SAIT301 at the concentration of 0 ug/ml, 0.016 ug/ml, 0.08 ug/ml, 0.4 ug/ml, or 2 ug/ml, and 72 hours after the antibody treatment, the number of the living cells was counted by CellTiter Glo assay (Promega, G7573).
The obtained SAIT301 resistance acquired cell lines were named EBC1-SR#6.
In general terms: In ATP-based viability assays light output follows the ATP content of the culture.

Experimental findings from patent US9869668B2, “PDGF as a biomarker for predicting resistance or effect of c-Met targeting drugs” (SAMSUNG ELECTRONICS CO., LTD., priority 2014, dated 2018) are described below.

Consider `CCN(CC)CCCCNc1ncc2cc(-c3cc(OC)cc(OC)c3)c(NC(=O)NC(C)(C)C)nc2n1` [PD173074], for which the “chemosensitivity of EBC1-SR#6 cell line compared with EBC1” value in assay [1] is recorded as “not changed markedly”.

B1: SAIT301: anti-c-Met antibody: huAbF46-H4-A1 heavy chain variable region, human IgG2 hinge and constant region, kappa light chain (antibody)
heavy: EVQLVESGGGLVQPGGSLRLSCAASGFTFTDYYMSWVRQAPGKGLEWLGFIRNKANGYTTEYSASVKGRFTISRDNSKNTLYLQMNSLRAEDTAVYYCARDNWFAYWGQGTLVTVSSASTKGPSVFPLAPCSRSTSESTAALGCLVKDYFPEPVTVSWNSGALTSGVHTFPAVLQSSGLYSLSSVVTVPSSNFGTQTYTCNVDHKPSNTKVDKTVERKCCVECPPCPAPPVAGPSVFLFPPKPKDTLMISRTPEVTCVVVDVSHEDPEVQFNWYVDGVEVHNAKTKPREEQFNSTFRVVSVLTVVHQDWLNGKEYKCKVSNKGLPAPIEKTISKTKGQPREPQVYTLPPSREEMTKNQVSLTCLVKGFYPSDIAVEWESNGQPENNYKTTPPMLDSDGSFFLYSKLTVDKSRWQQGNVFSCSVMHEALHNHYTQKSLSLSPGK
light: DIQMTQSPSSLSASVGDRVTITCKSSQSLLASGNQNNYLAWYQQKPGKAPKMLIIWASTRVSGVPSRFSGSGSGTDFTLTISSLQPEDFATYYCQQSYSRPYTFGQGTKVEIKRTVAAPSVFIFPPSDEQLKSGTASVVCLLNNFYPREAKVQWKVDNALQSGNSQESVTEQDSKDSTYSLSSTLTLSKADYEKHKVYACEVTHQGLSSPVTKSFNRGEC
On to B1, for which the “responsiveness of cells to antibody” value in assay [2] is given as “responsive”. Further, the “effect of antibody on number of living cells” value in assay [3] is reported as “no effect”.
